Article doi:10.1101/2022.02.27.482175, “Transient DNA binding to gapped DNA substrates links DNA sequence to the single-molecule kinetics of protein-DNA interactions”

Tests used:
Conditions in all cases: protein: recombinant; tags: His6; Alexa647 label; chain copies: 2; label: 5' biotin strand 1; Cy3B on strand 2 (position 13); blunt
[1] = target: T1, CAP (catabolite activator protein), Alexa647-CAP (UniProt P0ACJ8 2-210, H18C;C179S); assay: single-molecule TIRF (koff/kon); 0.2 mM cAMP, 10 mM Mg2+; kon 9.73e6 M-1s-1, t2 8.45 s; 1.5 nM CAP, 0.2 mM cAMP, 40 mM Tris pH 8, 100 mM KCl, 10 mM MgCl2, 5% glycerol, 1 mM TROLOX, glucose oxidase/catalase oxygen scavenger (Methods also lists 40% glucose), 27-30 C
[2] = target: T1, CAP (catabolite activator protein), …; assay: single-molecule TIRF (koff/kon); 0.2 mM cAMP, 10 mM Mg2+; kon 8.74e6 M-1s-1, t2 5.2 s; 1.5 nM CAP, 0.2 mM cAMP, 40 mM Tris pH 8, 100 mM KCl, 10 mM MgCl2, 5% glycerol, 1 mM TROLOX, glucose oxidase/catalase oxygen scavenger (Methods also lists 40% glucose), 27-30 C
[3] = target: T1, CAP (catabolite activator protein), …; assay: single-molecule TIRF (koff/kon); 0.2 mM cAMP, 10 mM Mg2+; kon 10.24e6 M-1s-1, t2 3.3 s; 1.5 nM CAP, 0.2 mM cAMP, 40 mM Tris pH 8, 100 mM KCl, 10 mM MgCl2, 5% glycerol, 1 mM TROLOX, glucose oxidase/catalase oxygen scavenger (Methods also lists 40% glucose), 27-30 C

B1: CAPcons DNA (GSeq-CAP-(1-49)) (dsDNA)
DNA 1: GTGCCTAAAATGTGATCTAGATCACATTTATTGCGTAGAGCTCACTGCC
DNA 2: GGCAGTGAGCTCTACGCAATAAATGTGATCTAGATCACATTTTAGGCAC
With B1 the Kd [1] was roughly 12 nM.

B2: CAPmut1 DNA (GP25/CP25) (dsDNA)
DNA 1: GTGCCTAAAATGTGATCTAGATCAGATTTATTGCGTAGAGCTCACTGCC
DNA 2: GGCAGTGAGCTCTACGCAATAAATCTGATCTAGATCACATTTTAGGCAC
B2 showed a Kd [2] of roughly 22 nM.

B3: CAPmut2 DNA (GP25,CP38) (dsDNA)
DNA 1: GTGCCTAAAATCTGATCTAGATCAGATTTATTGCGTAGAGCTCACTGCC
DNA 2: GGCAGTGAGCTCTACGCAATAAATCTGATCTAGATCAGATTTTAGGCAC
In the case of B3, the Kd [3] is reported as roughly 30 nM.
